Assay results taken from publication PMC3835915, “Diversification of Fungal Specific Class A Glutathione Transferases in Saprotrophic Fungi” (PLoS ONE, 2013).

Substrate: S=C=NCCc1ccccc1
Test: purified protein
Type: biochemical, Phanerodontia chrysosporium
Conditions: 5 mM GSH, pH 6.5, 2% acetonitrile

B1: PcGSTFuA1 (Phanerodontia chrysosporium) (protein)
chain: MAQPIVFYDIPSNERIKHSPWSPNTWKIRYALNYKGLKYKTEWVEYPDIAGVVQKLGGKPTEKTPDGRDHYTLPVIYDPNTKKVVEDSAAIAKYLDETYPDTPKLFPAGTDAFQAAFLDFAWPVLGFPVFMLVILDTANSLLPRSHDYFRSTREQKFGKKLEELATEEEWAKVEAGLAKLKGYLDANGKGNDLLLMGAQGGITYSDIQIASFFVWAKIIWGEGSEKWKRLISLHDGKWAQFYAQFTKFEQVDV
notes: full length, untagged, pET-3d, E. coli BL21(DE3) pSBET; Ala inserted after Met1; dimer; primers encode N-term MAQPIVF, C-term EQVDV
Km: 119.0 ± 14.4 µM | kcat: 8.515 ± 0.267 s⁻¹
